Reference: US20190351049A1 (Regeneron, published 2019)

B1: H1H15259P2 (antibody, V domains shown)
VH: QVQLVESGGGVVQPGRSLRLSCAASGFTFSNYGIHWVRQAPGKGLEWVAGIYYDGSNKYYGDSVKGRFTISRDNSKNTLYLQMNSLRAEDTAVYYCARDRGNNHYYHNNPYYYYHGLDVWGQGTTVTVSS
VL: not shown
B2: H1H15253P2 (antibody, V domains shown)
VH: EVQLVESGGGLVQPGGSLRLSCVVSGFTSRNYAMSWVRQAPGKGLEWVSAISGSGGSTYYADSVKGRFTISRDNPKNTLYLQMNSLRAEDTALYYCAEDPGTSFDYWGQGTLVTVSS
VL: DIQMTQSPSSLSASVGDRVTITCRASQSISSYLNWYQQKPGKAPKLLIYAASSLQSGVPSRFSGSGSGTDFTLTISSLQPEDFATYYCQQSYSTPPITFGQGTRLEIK
B3: H1H15264P2 (antibody, V domains shown)
VH: QLQLQESGPGLVKPSETLSLTCSVSGGSINNNNYYWGWIRQPPGRGLEWIGSFFYSGPTYYNPSLRSRVTISVDTSKNQFSLKLNSVTAADTAIYYCARQDGNYYPLFDYWGQGTLVTVSS
VL: not shown
B4: H1H15260P2 (antibody, V domains shown)
VH: QVQLQESGPGLVKPSETLSLTCSVSGGSITSSYWSWIRQPPGRGLEWIGYVYYYGTTKYNPSLKSRVTTSMDTSKNQFSLKLNSVTAADTAVYYCARLELLFDYWGQGTLVTVSS
VL: not shown
B5: H1H15215P (antibody, V domains shown)
VH: EVQLVESGGGLVQPGGSLRLSCAASGFTFSTYGMSWVRQAPGKGLEWVSTIIGSGYNTYYSDSVKGRFTMSRDNSKSTLYLQMNSLRAEDTAVYYCTKEGPIIGTTNWGQGTLVTVSS
VL: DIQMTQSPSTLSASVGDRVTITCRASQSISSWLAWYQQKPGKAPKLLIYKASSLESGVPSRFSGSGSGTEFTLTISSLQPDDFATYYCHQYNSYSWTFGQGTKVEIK
B6: H1H15249P2 (antibody, V domains shown)
VH: QLQLQESGPGLVKPSETLSLTCTVSGGSISNNNYYWGWIRQPPGKGLDWIGSIYYSGNTYYNPSLKSRVTISVDTSKNQFSLKMSSVTATDTALYYCARQGADHNWVDPWGQGTLVTVSS
VL: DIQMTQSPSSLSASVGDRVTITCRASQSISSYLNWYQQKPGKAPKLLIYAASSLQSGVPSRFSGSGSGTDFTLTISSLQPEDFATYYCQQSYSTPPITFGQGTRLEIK
B7: H1H15208P (antibody, V domains shown)
VH: EVQLVESGGDLVQPGGSLRLSCTASGFTFSNYEMNWVRQAPEKGLDWVSFISSSGGAIYYADSVKGRFTISRDNAKNSLYLQMNSLRAEDSAIYFCARSDSGGNSRYWGQGTLVTVSS
VL: DIQMTQSPSSVSASVGDRVTVTCRASQDISNWLVWYQQKPGKAPKFLIYAASSLQSGVPSRFSGSGSGTDFTLTISSLQPEDFATYYCQQANSFPPTFGGGTKVEIK

Tests used:
[1] = molecular target: MERS-RBD-mFc (MERS-CoV (isolate EMC/2012), UniProt K9N5Q8 367-606); experiment: Octet BLI, MERS.mFc captured on the sensor, then mAb-1 applied
[2] = molecular target: MERS-CoV spike protein (EMC/2012), wt (MERS-CoV (isolate EMC/2012), UniProt K9N5Q8 18-1353); experiment: cell-based or functional assay

Row | Binder | mAb-1 Binding (nm) [1] | IC50 against MERSpp [2] | IC50 against live virus (EMC2012) [2]
1 | B1 | 0.42 nm | 0.0764 nM | 1.63 nM
2 | B2 | 0.38 nm | 0.151 nM | 2.42 nM
3 | B3 | 0.41 nm | 0.134 nM | 2.39 nM
4 | B4 | 0.39 nm | 0.0643 nM | 6.7 nM
5 | B5 | 0.56 nm | 0.192 nM | 2.67 nM
6 | B6 | 0.4 nm | 0.227 nM | 12 nM
7 | B7 | 0.46 nm | 0.0827 nM | 2.41 nM
